Positions count from the first letter of the chain named.
T1: human Claudin 18.1 Mutant 15 (Claudin 18.1/S42A/Q45N/Q56E) (human, UniProt P56856 1-261)
T1 chain: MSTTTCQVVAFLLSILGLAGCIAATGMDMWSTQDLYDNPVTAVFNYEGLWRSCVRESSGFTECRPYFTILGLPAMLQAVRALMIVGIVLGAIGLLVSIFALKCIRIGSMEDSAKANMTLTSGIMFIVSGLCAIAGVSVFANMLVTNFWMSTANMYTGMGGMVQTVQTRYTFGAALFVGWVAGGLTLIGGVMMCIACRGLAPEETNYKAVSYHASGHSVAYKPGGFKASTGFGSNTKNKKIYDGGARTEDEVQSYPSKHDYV

T2: human Claudin 18.1 Mutant 16 (Claudin 18.1/S42A/Q45N/E47Q/Q56E) (human, UniProt P56856 1-261)
T2 chain: T1 chain with E47Q

B1: 18F2-5 (antibody, human IgG1, kappa, V domains shown)
VH: QVQLQQPGAELVRPGASVKLSCKASGYTFTSFWLNWVKQRPGQGLEWIGNIYPSTSYTVYNQKFKDKATLTVDKSSSTAYMQLSSPTSEDSAVYYCTRTWRGNSFDLWGQGTTLTVSS
VL: DIVMTQSPSSLTVTAGEKVTMSCKSNQSLLNSGNQKNYVTWYQQKPGQPPKLLIYWGSTRVRGVPDRFTGSGSGTDFTLTISSVQAEDLAVYYCQNDYTYPFTFGSGTKLEIKR
B2: IMAB362 (antibody, V domains shown)
VH: B1 VH with F32Y, L34I, T55D, V59N, T99S, L107Y
VL: B1 VL with N26S, V39L, G57A, V61E, R62S, T99S
B3: 18F2-30 (antibody, human IgG1, kappa, V domains shown)
VH: B1 VH with L107Y
VL: B1 VL with N26S, V61S, R62T
B4: 18F2-35 (antibody, human IgG1, kappa, V domains shown)
VH: B1 VH with V59I, L107Y
VL: B1 VL with N26S, V39L
B5: 18F2 (antibody, human IgG1, kappa, V domains shown)
VH: B1 VH with L34V, T99S, L107H
VL: B1 VL with N26S
notes: Chimeric full length antibody, mouse variable regions with human IgG1/kappa constant regions; also called clone 18F2; parent clone 18F2
B6: 18F2-66 (antibody, human IgG1, kappa, V domains shown)
VH: B1 VH with L34I, T55A
VL: B1 VL with N26S, G57S, V61S, R62F
B7: 18F2-30VH0VL0 (antibody, human IgG1, kappa, V domains shown)
VH: QVQLVQSGAEVKKPGASVKVSCKASGYTFTSFWLNWVRQAPGQGLEWMGNIYPSTSYTVYNQKFKDRVTMTRDTSTSTVYMELSSLRSEDTAVYYCARTWRGNSFDYWGQGTTVTVSS
VL: DIVMTQSPDSLAVSLGERATINCKSSQSLLNSGNQKNYVTWYQQKPGQPPKLLIYWGSTRSTGVPDRFSGSGSGTDFTLTISSLQAEDVAVYYCQNDYTYPFTFGQGTKLEIKR
notes: Humanized, human IgG1/kappa constant regions
B8: 18F2-35VH0VL0 (antibody, human IgG1, kappa, V domains shown)
VH: B7 VH with V59I
VL: B7 VL with V39L, S61V, T62R
notes: as for B7
B9: 18F2-30VH7VL3 (antibody, human IgG1, kappa, V domains shown)
VH: B7 VH with R38K, A40R, M48I, R67K, M70L, R72V, T74K, V79A, A97T
VL: B7 VL with D9S, A12T, R18K, N22S, V89L, Q106S
notes: as for B7
B10: 18F2-66VH6VL3 (antibody, human IgG1, kappa)
heavy: not shown
light: DIVMTQSPSSLTVSLGEKATISCKSSQSLLNSGNQKNYVTWYQQKPGQPPKLLIYWSSTRSFGVPDRFSGSGSGTDFTLTISSLQAEDLAVYYCQNDYTYPFTFGSGTKLEIKRTVAAPSVFIFPPSDEQLKSGTASVVCLLNNFYPREAKVQWKVDNALQSGNSQESVTEQDSKDSTYSLSSTLTLSKADYEKHKVYACEVTHQGLSSPVTKSFNRGEC
notes: as for B7
B11: 18F2-66VH7VL3 (antibody, human IgG1, kappa)
heavy: not shown
light: B10 light
notes: as for B7
B12: 18F2-66VH6VL0 (antibody, human IgG1, kappa, V domains shown)
VH: QVQLVQSGAEVKKPGASVKVSCKASGYTFTSFWINWVRQRPGQGLEWIGNIYPSASYTVYNQKFKDRVTLTVDKSSSTAYMELSSLTSEDTAVYYCTRTWRGNSFDLWGQGTTVTVSS
VL: B7 VL with G57S, T62F
notes: as for B7
B13: 18F2-66VH2VL0 (antibody, human IgG1, kappa, V domains shown)
VH: B12 VH with R40A, S76T, A79V, T87R, T97A
VL: B7 VL with G57S, T62F
notes: as for B7
B14: 18F2-66VH4VL0 (antibody, human IgG1, kappa, V domains shown)
VH: B12 VH with S76T, A79V, T87R, T97A
VL: B7 VL with G57S, T62F
notes: as for B7
B15: 18F2-66VH3VL0 (antibody, human IgG1, kappa, V domains shown)
VH: B12 VH with R40A, K74T, S76T, A79V, T87R, T97A
VL: B7 VL with G57S, T62F
notes: as for B7
B16: 18F2-66VH0VL0 (antibody, human IgG1, kappa, V domains shown)
VH: B7 VH with L34I, T55A, Y107L
VL: B7 VL with G57S, T62F
notes: as for B7
B17: 18F2-66VH5VL0 (antibody, human IgG1, kappa, V domains shown)
VH: B12 VH with S76T, T87R
VL: B7 VL with G57S, T62F
notes: as for B7
B18: 18F2-35VH7VL0 (antibody, human IgG1, kappa, V domains shown)
VH: B12 VH with I34L, R38K, A55T, V59I, R67K, S76T, T87R, L107Y
VL: B7 VL with V39L, S61V, T62R
notes: as for B7

Target: T3, human Claudin 18.2 (human)
T3 construct: Overexpressed on HEK293A or MC38 cells by lentivirus; endogenous on KATO-III and NUGC-4 cells
Test: FACS on HEK-293A cells expressing human Claudin 18.2

Row | Binder | EC50 [pM]
1 | B1 | 616
2 | B2 | 634
3 | B3 | 562
4 | B4 | 509
5 | B5 | 1260
6 | B6 | 524

Target: T1, human Claudin 18.1 Mutant 15 (Claudin …)
Test: FACS on HEK293A cells expressing mutant 15

Row | Binder | binding result
7 | B7 | binds
8 | B8 | binds
9 | B9 | binds

Target: T2, human Claudin 18.1 Mutant 16 (Claudin …)
Test: FACS on HEK293A cells expressing mutant 16

Row | Binder | binding result
10 | B7 | binds
11 | B8 | binds
12 | B9 | binds

Target: T4, human Claudin 18.1 (human, UniProt P56856 1-261)
T4 construct: Overexpressed on HEK293A cells by lentivirus
Test: FACS on HEK293A cells expressing human Claudin 18.1 WT

T4 sequence (P56856 whole entry): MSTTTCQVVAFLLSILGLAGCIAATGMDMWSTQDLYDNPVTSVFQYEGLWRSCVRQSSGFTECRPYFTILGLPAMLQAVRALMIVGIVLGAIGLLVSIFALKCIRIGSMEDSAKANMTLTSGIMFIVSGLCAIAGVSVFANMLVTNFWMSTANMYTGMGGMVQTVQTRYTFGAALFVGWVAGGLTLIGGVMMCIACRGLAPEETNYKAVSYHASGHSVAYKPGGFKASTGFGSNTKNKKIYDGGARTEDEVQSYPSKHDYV

Row | Binder | binding result
13 | B7 | no binding
14 | B8 | no binding
15 | B9 | no binding

Target: T4, human Claudin 18.1
Test: FACS on HEK293A/hClaudin 18.1 cells

Row | Binder | binding result
16 | B10 | no binding
17 | B11 | no binding
18 | B12 | no binding
19 | B13 | no binding
20 | B14 | no binding
21 | B15 | no binding
22 | B16 | no binding
23 | B17 | no binding
24 | B18 | no binding

Target: human Claudin 18.1 Mutant 14 (Q56E) (human, UniProt P56856 1-261)
Test: FACS on HEK293A cells expressing mutant 14

Row | Binder | binding result
25 | B7 | binds
26 | B8 | binds
27 | B9 | binds

Reference: patent US10421817 (BEIJING MABWORKS BIOTECH, dated 2019)
